The record followed here is publication PMC10073703.

The target of the test is Haemagglutinin (HA) of influenza A/Delaware/55/2019 (H1N1), from Flucelvax monovalent drug substance (Monobulk) (influenza A virus A/Delaware/55/2019 (H1N1)). Put plainly: SEC. Background: SEC sorts molecules by how far they enter the pores of the column.

By stoichiometry N is commonly meant a count of units in the complex or per binding partner. “Haemagglutinin (HA) of influenza A/Delaware/55/2019 (H1N1), from Flucelvax monovalent drug substance (Monobulk) (natural protein)” had a stoichiometry N of 3.
